# In patent publication US20100260668A1 (published 2010):
# Molecular target: T1, VEGF (UniProt P15692-4 27-191)
# T1 construct: Bought reagent; also called vascular endothelial growth factor
# Test: SPR (Biacore), DVD-Ig captured, VEGF in solution
# T1 sequence (P15692 other isoform, or with tags, fused parts or gaps limits assumed): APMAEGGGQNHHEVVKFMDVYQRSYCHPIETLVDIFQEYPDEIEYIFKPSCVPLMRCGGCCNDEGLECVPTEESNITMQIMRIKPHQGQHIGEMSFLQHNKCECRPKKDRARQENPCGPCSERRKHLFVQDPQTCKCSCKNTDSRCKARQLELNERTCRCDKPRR
Binder,Kd [nM],koff [s⁻¹],kon [M⁻¹ s⁻¹]
"DVD508 (bispecific antibody, human IgG1, kappa, DVD-Ig; N-term; VD AB070 (VEGF), C-term; VD AB072 (DLL4); HC linker short, LC linker long; also called DVD508H; DVD508L) heavy: not shown light: DIQMTQSPSSLSASVGDRVTITCRASQDVSTAVAWYQQKPGKAPKLLIYSASFLYSGVPSRFSGSGSGTDFTLTISSLQPEDFATYYCQQSYTTPPTFGQGTKVEIKRTVAAPSVFIFPPDIQMTQSSSYLSVSLGGRVTITCKASDHINNWLAWYQQKPGNAPRLLISGATSLETGVPSRFSGSGSGKDYTLSITSLQTEDVATYYCQQYWSIPLTFGAGTKLELKRTVAAPSVFIFPPSDEQLKSGTASVVCLLNNFYPREAKVQWKVDNALQSGNSQESVTEQDSKDSTYSLSSTLTLSKADYEKHKVYACEVTHQGLSSPVTKSFNRGEC",0.162,0.000213,1.31e+06

# Molecular target: T2, VEGF (UniProt P15692-4 27-191)
# T2 construct: Bought reagent; also called vascular endothelial growth factor
# Test: BIACORE SPR
# T2 sequence (P15692 other isoform, or with tags, fused parts or gaps limits assumed): as the sequence (P15692 other isoform, or with tags, fused parts or gaps limits assumed) above
Binder,Kd [nM],koff [s⁻¹],kon [M⁻¹ s⁻¹]
"DVD043 (bispecific antibody, human IgG1, kappa, DVD-Ig; N-term; AB014 (VEGF), C-term; AB015 (DLL4); HC linker short, LC linker short; also called DVD043H; DVD043L) heavy: not shown light: DIQMTQSPSSLSASVGDRVTITCSASQDISNYLNWYQQKPGKAPKVLIYFTSSLHSGVPSRFSGSGSGTDFTLTISSLQPEDFATYYCQQYSTVPWTFGQGTKVEIKRTVAAPDIQMTQSPSSLSASVGDRVTITCRASQDVSTAVAWYQQKPGKAPKLLIYSASFLYSGVPSRFSGSGSGTDFTLTISSLQPEDFATTYYCQQSYTGTVTFGQGTKVEIKRTVAAPSVFIFPPSDEQLKSGTASVVCLLNNFYPREAKVQWKVDNALQSGNSQESVTEQDSKDSTYSLSSTLTLSKADYEKHKVYACEVTHQGLSSPVTKSFNRGEC",0.0746,0.000125,1.68e+06
"DVD470 (bispecific antibody, human IgG1, kappa, DVD-Ig; N-term; AB014 (VEGF), C-term; AB015 (DLL4); HC linker long, LC linker long; also called DVD470H; DVD470L) heavy: not shown light: DIQMTQSPSSLSASVGDRVTITCSASQDISNYLNWYQQKPGKAPKVLIYFTSSLHSGVPSRFSGSGSGTDFTLTISSLQPEDFATYYCQQYSTVPWTFGQGTKVEIKRTVAAPSVFIFPPDIQMTQSPSSLSASVGDRVTITCRASQDVSTAVAWYQQKPGKAPKLLIYSASFLYSGVPSRFSGSGSGTDFTLTISSLQPEDFATTYYCQQSYTGTVTFGQGTKVEIKRTVAAPSVFIFPPSDEQLKSGTASVVCLLNNFYPREAKVQWKVDNALQSGNSQESVTEQDSKDSTYSLSSTLTLSKADYEKHKVYACEVTHQGLSSPVTKSFNRGEC",0.201,0.00024,1.2e+06
"DVD476 (bispecific antibody, human IgG1, kappa, DVD-Ig; N-term; AB014 (VEGF), C-term; AB015 (DLL4); HC linker long, LC linker short; also called DVD476H; DVD476L) heavy: not shown light: DIQMTQSPSSLSASVGDRVTITCSASQDISNYLNWYQQKPGKAPKVLIYFTSSLHSGVPSRFSGSGSGTDFTLTISSLQPEDFATYYCQQYSTVPWTFGQGTKVEIKRTVAAPDIQMTQSPSSLSASVGDRVTITCRASQDVSTAVAWYQQKPGKAPKLLIYSASFLYSGVPSRFSGSGSGTDFTLTISSLQPEDFATTYYCQQSYTGTVTFGQGTKVEIKRTVAAPSVFIFPPSDEQLKSGTASVVCLLNNFYPREAKVQWKVDNALQSGNSQESVTEQDSKDSTYSLSSTLTLSKADYEKHKVYACEVTHQGLSSPVTKSFNRGEC",0.0281,4.74e-05,1.69e+06
"DVD482 (bispecific antibody, human IgG1, kappa, DVD-Ig; N-term; AB014 (VEGF), C-term; AB015 (DLL4); HC linker short, LC linker long; also called DVD482H; DVD482L) heavy: not shown light: DIQMTQSPSSLSASVGDRVTITCSASQDISNYLNWYQQKPGKAPKVLIYFTSSLHSGVPSRFSGSGSGTDFTLTISSLQPEDFATYYCQQYSTVPWTFGQGTKVEIKRTVAAPSVFIFPPDIQMTQSPSSLSASVGDRVTITCRASQDVSTAVAWYQQKPGKAPKLLIYSASFLYSGVPSRFSGSGSGTDFTLTISSLQPEDFATTYYCQQSYTGTVTFGQGTKVEIKRTVAAPSVFIFPPSDEQLKSGTASVVCLLNNFYPREAKVQWKVDNALQSGNSQESVTEQDSKDSTYSLSSTLTLSKADYEKHKVYACEVTHQGLSSPVTKSFNRGEC",0.2,0.000138,687000
"DVD442 (bispecific antibody, human IgG1, kappa, DVD-Ig; N-term; AB014 (VEGF), C-term; AB069 (DLL4); HC linker short, LC linker short; also called DVD442H; DVD442L) heavy: not shown light: DIQMTQSPSSLSASVGDRVTITCSASQDISNYLNWYQQKPGKAPKVLIYFTSSLHSGVPSRFSGSGSGTDFTLTISSLQPEDFATYYCQQYSTVPWTFGQGTKVEIKRTVAAPDIVMTQSPDSLAVSLGERATISCRASESVDNYGISFMKWFQQKPGQPPKLLIYAASNQGSGVPDRFSGSGSGTDFTLTISSLQAEDVAVYYCQQSKEVPWTFGGGTKVEIKRTVAAPSVFIFPPSDEQLKSGTASVVCLLNNFYPREAKVQWKVDNALQSGNSQESVTEQDSKDSTYSLSSTLTLSKADYEKHKVYACEVTHQGLSSPVTKSFNRGEC",0.088,0.00017,1.93e+06
"DVD448 (bispecific antibody, human IgG1, kappa, DVD-Ig; N-term; AB014 (VEGF), C-term; AB069 (DLL4); HC linker long, LC linker long; also called DVD448H; DVD448L) heavy: not shown light: DIQMTQSPSSLSASVGDRVTITCSASQDISNYLNWYQQKPGKAPKVLIYFTSSLHSGVPSRFSGSGSGTDFTLTISSLQPEDFATYYCQQYSTVPWTFGQGTKVEIKRTVAAPSVFIFPPDIVMTQSPDSLAVSLGERATISCRASESVDNYGISFMKWFQQKPGQPPKLLIYAASNQGSGVPDRFSGSGSGTDFTLTISSLQAEDVAVYYCQQSKEVPWTFGGGTKVEIKRTVAAPSVFIFPPSDEQLKSGTASVVCLLNNFYPREAKVQWKVDNALQSGNSQESVTEQDSKDSTYSLSSTLTLSKADYEKHKVYACEVTHQGLSSPVTKSFNRGEC",0.271,0.000136,504000
"DVD454 (bispecific antibody, human IgG1, kappa, DVD-Ig; N-term; AB014 (VEGF), C-term; AB069 (DLL4); HC linker long, LC linker short; also called DVD454H; DVD454L) heavy: not shown light: DIQMTQSPSSLSASVGDRVTITCSASQDISNYLNWYQQKPGKAPKVLIYFTSSLHSGVPSRFSGSGSGTDFTLTISSLQPEDFATYYCQQYSTVPWTFGQGTKVEIKRTVAAPDIVMTQSPDSLAVSLGERATISCRASESVDNYGISFMKWFQQKPGQPPKLLIYAASNQGSGVPDRFSGSGSGTDFTLTISSLQAEDVAVYYCQQSKEVPWTFGGGTKVEIKRTVAAPSVFIFPPSDEQLKSGTASVVCLLNNFYPREAKVQWKVDNALQSGNSQESVTEQDSKDSTYSLSSTLTLSKADYEKHKVYACEVTHQGLSSPVTKSFNRGEC",0.079,0.000126,1.59e+06
